In publication doi:10.1101/2020.03.20.000240:

What was measured:
Assay in all cases: SPR
[1] = biological target: full-length UmuD, component of DNA polymerase V, from Acinetobacter baumannii (Acinetobacter baumannii ATCC 17978)
[2] = biological target: UmuDAb C-terminal domain (CTD) (Acinetobacter baumannii ATCC 17978)
[3] = biological target: full length UmuDAb transcription repressor from Acinetobacter baumannii (Acinetobacter baumannii ATCC 17978)

Substance “DdrR protein from Acinetobacter baumannii (natural protein)” has a Kd [1] of 0.294 µM, a Kd [2] of 0.106 µM and a Kd [3] of 0.0833 µM.
